# Where no end group is shown, it is not given here. [ ]: non-standard residue; d: D form.
# Target: T1, MAPKAP kinase II (MK2) (UniProt P49137 1-400, limits assumed)
# Experiment: cell-based or functional assay
# T1 sequence (P49137 whole entry): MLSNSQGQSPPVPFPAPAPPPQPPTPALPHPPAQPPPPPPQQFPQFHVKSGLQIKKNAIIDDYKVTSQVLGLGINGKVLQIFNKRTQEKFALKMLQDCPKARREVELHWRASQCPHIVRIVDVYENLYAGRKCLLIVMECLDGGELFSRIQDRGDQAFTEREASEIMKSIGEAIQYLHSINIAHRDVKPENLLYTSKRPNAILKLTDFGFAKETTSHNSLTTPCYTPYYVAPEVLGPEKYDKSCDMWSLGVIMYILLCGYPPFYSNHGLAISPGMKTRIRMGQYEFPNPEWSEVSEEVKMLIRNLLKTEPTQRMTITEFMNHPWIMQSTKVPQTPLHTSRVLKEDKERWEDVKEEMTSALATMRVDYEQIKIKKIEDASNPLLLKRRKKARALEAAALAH
row,Binder,% of … [SEQ ID NO: 124] Reaction Velocity at an Inhibitor Concentration of 100 µM
1,KALNRQAGVAA,118%
2,KALNRQ[dL]GVAA [KALNRQdLGVAA],357%
3,KALNRQLGVAA,100%
4,KAANRQLGVAA,152%
5,WLKKIKAWLKKIKALNRQLGVVA,-32%
6,KALNRQLGAAA,373%
7,KALNAQLGVAA,358%
8,KKKALNRQLGVAA,91%
9,KALNRALGVAA,358%
10,KALNRQLGVA,100%
11,KALNRQLAVAA,72%

# Target: T1, MAPKAP kinase II (MK2)
# Experiment: cell-based or functional assay
# Remark: another data set of the same source
row,Binder,% of Blank Reaction Velocity at an Inhibitor Concentration of 6.25pN
1,WLRRIKAWLRRIKALARQLAVA,3.3%
2,WLRRIKAWLRRIKKKALARQLAVA,1%
3,WLRRIKAWLRRIKALNRQLAVA,-2.1%
4,WLRRIKAWLRRIKALARQLGVA,3.9%

# — patent publication US20090149389A1 (PURDUE RESEARCH FOUNDATION, published 2009)
